# According to article PMC9979977:
# Molecular target: Borna disease virus 1 (BoDV-1) phosphoprotein (Borna disease virus 1)
# Assay: SEC-MALS; SEC-MALLS, Superdex 200 10/300, 20°C, 20 mM HEPES pH 7.5, 150 mM NaCl, 5%(v/v) glycerol; protein applied at 1-4 mg/ml; no concentration dependence of the oligomerization
substance,measurement,value
Borna disease virus 1 (BoDV-1) phosphoprotein (natural protein),stoichiometry N,4
